Test results as given in the supplement of paper PMC10567573.

B1: FBXO34 (parent)
chain: PRYREDPCKQCKKKYVKGDVSLCR
B2: KRT13 (parent)
chain: TPGIDLTRVLAEMREQYEAMAERN

Variants of: B1
Test: protein stability index of a GFP-peptide fusion (GPS, HEK-293T) (PSI 1-6); higher = more stable
Conditions: c terminus: a fixed tail appended
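Note: lentivirally expressed fusions sorted by FACS into six bins by GFP to DsRed ratio, PSI derived from sequencing read proportions per bin multiplied by bin number.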

Protein stability index, by site and new letter:
Q10: Y 2.72 | M 2.09 | W 2.69 | A 2.79 | R 2.75 | F 1.77 | K 2.81 | P 3.13 | H 2.39 | T 2.78 | L 2.04 | E 2.87 | I 2.13 | D 2.83 | V 3.28 | C 2.13 | G 3.31 | N 2.64 | S 3.13
K12: W 2.37 | F 1.79 | H 2.76 | T 2.57 | S 2.54 | L 2.28 | I 2.33 | N 2.39 | G 2.5 | E 2.86 | Q 2.57 | Y 2.46 | D 2.57 | A 2.52 | M 2.18 | C 1.58 | P 3.25 | R 3.54 | V 2.31
K14: F 2.5 | D 2.24 | T 2.92 | M 2.31 | S 2.45 | H 2.29 | E 2.69 | N 2.54 | L 2 | Q 2.59 | V 2.2 | G 2.48 | Y 2.12 | I 2.19 | C 1.84 | R 2.88 | P 2.85 | W 2.22 | A 2.17
C11: R 3.77 | H 3.68 | P 3.99 | T 3.57 | S 4.07 | A 3.23 | D 4.4 | L 3.31 | W 2.12 | E 3.91 | V 3.11 | Q 3.75 | M 3.01 | Y 2.76 | N 4.14 | I 3.01 | K 4.09 | G 3.91 | F 2.12
D19: R 3.41 | V 2.07 | M 2.84 | A 3.15 | E 3.31 | Y 2.56 | W 2.56 | I 3.18 | G 2.63 | K 3.14 | F 2.23 | H 2.88 | C 3.07 | N 3.52 | P 2.66 | L 2.43 | Q 2.71 | S 2.38 | T 2.97
G18: M 2.18 | Q 3.2 | Y 2.35 | P 3.13 | F 2.16 | H 3.23 | N 2.92 | C 2.94 | K 2.69 | I 2.35 | A 2.54 | L 2.25 | V 2.46 | R 3.31 | S 2.92 | W 2.3 | D 2.86 | T 2.5 | E 3.17
K13: W 2.65 | F 2.55 | M 2.47 | S 2.63 | Y 2.16 | N 2.66 | T 2.58 | L 2.94 | Q 2.36 | C 2.23 | E 2.69 | D 2.63 | P 1.68 | A 2.51 | I 2.05 | V 2.59 | G 2.68 | H 2.35 | R 2.6
L22: G 3.18 | D 3.01 | K 3.6 | I 3.12 | A 3.12 | C 3.15 | Q 2.32 | M 2.6 | E 3.48 | V 3.23 | H 2.88 | F 2.58 | Y 2.54 | P 2.41 | T 2.93 | S 3.29 | N 3.01 | W 2.08 | R 3.31
C8: N 3.86 | H 3.63 | K 3.88 | G 4.35 | S 3.82 | M 2.95 | V 3.61 | P 3.7 | W 3.02 | T 3.98 | L 3.71 | R 3.81 | F 3.15 | Q 3.87 | I 3.57 | Y 3.33
Y15: E 3.12 | K 3.49 | Q 2.9 | P 2.98 | R 3.31 | V 2.94 | W 2.79 | L 3.1 | C 2.73 | M 3.11 | I 2.95 | H 4.01 | S 3.07 | G 3.47 | D 3.06 | N 2.99 | A 2.8 | F 2.73 | T 3.13
K9: M 2.45 | L 2.42 | Q 2.72 | P 2.28 | T 2.66 | I 2.16 | E 3.33 | F 2.14 | H 2.29 | R 2.53 | V 2.82 | A 2.53 | G 2.59 | D 2.54 | Y 2.6 | N 2.46 | S 2.51 | W 2.26 | C 2.35
V20: H 3.51 | I 2.64 | C 3.68 | L 2.46 | G 2.18 | S 3.11 | P 3.05 | M 2.88 | N 2.97 | T 2.52 | F 1.93 | D 3.29 | W 2.06 | Q 3.31 | A 2.85 | K 3.07 | E 2.8 | R 2.49 | Y 2.38
S21: D 2.92 | F 2.67 | H 3.53 | C 4.63 | W 2.16 | K 2.87 | N 2.64 | M 2.51 | E 2.83 | V 3.13 | Q 3.14 | T 2.66 | L 2.22 | A 3.03 | I 2.34 | Y 2.18 | G 2.54 | P 2.53 | R 2.97
R24: S 3.39 | F 2.51 | V 3.34 | E 4.08 | D 3.82 | Q 3.91 | I 2.46 | G 3.11 | P 4.39 | A 2.9 | Y 2.87 | W 2.27 | T 3.05 | H 3.42 | M 3.09 | N 3.46 | C 3.58 | L 2.52 | K 4.33
V16: F 2.22 | Y 2.65 | M 2.19 | E 2.81 | R 3.4 | I 2.5 | K 2.75 | S 2.93 | L 2.98 | P 3.48 | N 2.52 | A 3.11 | W 2.31 | C 3.63 | T 2.74 | H 2.77 | G 2.55 | D 2.73 | Q 2.63
K17: S 2.19 | M 2.39 | P 2.83 | R 2.59 | N 2.77 | D 2.52 | H 3.2 | T 2.67 | C 2.52 | E 2.53 | W 2.72 | I 2.21 | Y 2.29 | Q 2.23 | V 2.69 | A 2.89 | G 2.61 | L 1.96 | F 2.04
C23: Q 1.9 | A 2.95 | K 3.29 | H 3.1 | N 2.53 | S 2.58 | M 2.95 | L 3.1 | F 2.27 | P 2.52 | T 3.12 | W 1.85 | E 2.71 | V 3.18 | R 2.86 | D 3.3 | G 2.88 | I 2.59 | Y 2.11

Variants of: B2
Test: as above
Conditions: c terminus: a fixed tail appended

Protein stability index of substitutions, site by site:
T1: N 4.26 | H 4.28 | C 3.45 | P 4.16 | S 3.49 | E 4.3 | L 2.71 | Q 3.13 | F 3.27 | K 3.85 | M 3.9 | G 4.59 | D 3.47 | I 4.36
